Experimental data taken from the nanobody polyreactivity screen of Harvey et al. (2022).

Assay: yeast display, Sf9 membrane polyspecificity reagent, FACS + sequencing; frameworks hold sequencing errors
Method in brief: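 Genes from sorted yeast were amplified by colony PCR, read by MiSeq 2 × 250 sequencing and filtered on CDR length. These cells carried a synthetic nanobody library in Saccharomyces cerevisiae BJ5465 and were sorted by FACS into low and high (top ~1%) gates on anti-HA and streptavidin fluorescence. Polyreactivity is labelled according to the gate of origin.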

| Sequence | polyreactivity (PSR sort gate) |
| --- | --- |
| QVQLEESGGGLVQAGGRLRLSCAASGRTITRNAMGWYRQAPGKERELVAAISSRGGSTSYADSVKGRFTISRDNAKNTFYLQMNSLKPEDTAVYYCNKKTAASDYDYWGQGTQVTVSS | high polyreactivity |
| QVQLEESGGGLVQAGGRLRLSCAASGSILTAYAMGWYRQAPGKERELVAASNFSGDNTYYADSVKGRFTISRDNAKNTVYLQMNSLKPQDTALYYCNADGRYAYVWYDYWGQGTQVTVSS | low polyreactivity |
| QVQLEESGGGLVQAGGRLRLSCSASGFICGSNAMGWYRQAPGKERELVAAISARGGSTYYADSVKGRFTISRDNAKNPVYLQMNSLKPEDTAVYYCNTGTSGRFLSFGNFDYWGQGTQVTVSS | high polyreactivity |
| QVQLEESGGGLVQAGGRLRLTCAASGFIFKLYAMGWYRQAPGKERELVAAISGNGGRTYYADSVKGRFTISRDNAKNTVYLQMNSLKPEDTAVDYCAARYVGVQRYYEFDYWGQGTQVTVSS | high polyreactivity |
| QVQLEESGGGLVQAGGSHRLSCAASGRTFGAYAMGWYLQAPGKEREVVAAITYRGASTYYADSVKGRFTISRDNAMYTVYLQMNSLITEDTAVYSCAAEGSIKYFVGYNWGYNYWGQGSQVTVSS | low polyreactivity |
| QVQLEESGGGLVQAGGSIRLSCAASGSIFYKYVMGCYRQAPGKERELVAAISRGGGSTYYADSVKGRFTISRDNSKNTVYLQMNSLKPEDTAVYYCNAVVRPRYGHGFDHWGQGTQVTVSS | high polyreactivity |
| QVQLEESGGGLVQAGGSLRISCAAAGSTFRSNAMGWYRPAPRKERELVAAINSGGSTYYADSVKGRFTISRDNAKNTVYLQMNSLKPEDTAVYYCAARYYTPFGTYRQNIRMYYWGQGTQVTVSS | high polyreactivity |
| QVQLEESGGGLVQAGGSLRISCAASGFIYRDYDMGWYRQAPGKERELVAAISLSGGSTYYADSVKGRFTISRDNAKNTVYLQMNSLKPEDTAVYYCAAVSAYEGNYWGQGTQVTVSS | high polyreactivity |
| QVQLEESGGGLVQAGGSLRLCCAASGSTFWAYVMGWYRQAPGKEMELVAAISKSGVRTHYADSVKGRFTISRDNAKNTVYLQMNSRKPEDTAVYYSAAGGVGNLDDYWGQGTQVTVSS | high polyreactivity |
| QVQLEESGGGLVQAGGSLRLICAASAMGRYRQAPGKERELVAVINSTGGSTYYADSVKGRFTISRDNAKNTVYLQMYSLKPDDTAVYYCARVTRRGPGYTTLYCRYDYWGQGTQVTVSS | low polyreactivity |
| QVQLEESGGGLVQAGGSLRLICAASGIFFIYAMGWYRQARGKERELVADIDSGGPTYYADSVKGRFTISRDNAKNTVYLQMNRLQPEDTAVYYCAFDYSNVDLYSLLFYESDYWGQGTQVTVSS | low polyreactivity |
| QVQLEESGGGLVQAGGSLRLICAASGIIFLFYALGWYRQAPGKERELVASITWSGGSTYYADSVKGRFTISRDNAKNTVYLQMNSLKPEDTAVYYCAASVKIISYLVHSEFLGGELDYWGQGTHVTVSS | low polyreactivity |
| QVQLEESGGGLVQAGGSLRLICAASGIIFRLNAMGWYRQATGQDRELVAAIRRRGGSTYYADSVKGRFTISRDNAKNTVYLQMNSLKPEDTAVYYCNARYLRMRYPYTDEYNYWGQGTQVTVSS | low polyreactivity |
| QVQLEESGGGLVQAGGSLRLICAASGSTFGDNAMGWSRQAPGKEGEFVAGISTNGGSTYYADSVKGRFTISRDNAKNTFYLQMNSLKPEDIAVYSCAAVNYYDQYGDYYWGQGTQVTVSS | low polyreactivity |
| QVQLEESGGGLVQAGGSLRLICAASGSTFIYNAMGWYRQAPGKERELVAAISARTGNTYYADSVKGRFTISRDNAKNTVYLQMNSLKPEDTAVYYCARRGFPRGGGPSRYYWYDYWGQGTQVTVSS | high polyreactivity |
| QVQLEESGGGLVQAGGSLRLSCAAAGLTFDVYAMGWYRPAPGNEMELVAAISSIGGSTYYADSVKGRFTISRDNAKNNVYLQMYSLKPEDTAVYYCSAAISLYSYDYWGQGTQVTVSS | low polyreactivity |
| QVQLEESGGGLVQAGGSLRLSCAASGFIFLDYAMGWYRQAPGKERELVAAISSRGARTYYADSVKGRFTISRDNAKNTVYLQMNSLKPEDTAVYYCAARGPLDRYGYWGQGTQVTVSS | high polyreactivity |
| QVQLEESGGGLVQAGGSLRLSCAASGFIFSSNAKGWYRQAPGKERELVAAISSSGGRTYYADSVKGRFTISRDNAKNPVYLQMNSLIPEYTAVYYCNADPRSLGSANDWGQGTQVTVSS | high polyreactivity |
| QVQLEESGGGLVQAGGSLRLSCAASGFIFSWYAMGWYRQAPGKERELVARISSSGGNTYYADSVKGRFTISRDNAKNTVYLQMNSLKPEDTAVYYCAATRYSLSGYGYWGQGTQVTVSS | high polyreactivity |
| QVQLEESGGGLVQAGGSLRLSCAASGFTFERNAMGWYRQAPGKERELVAAISWSGGSTYYADSVKGRFTISRDNAKNTVYLQMNSLKPEDTAVYYCAAYQWGYWYGYRMDYWGQGTQVTVSS | high polyreactivity |
| QVQLEESGGGLVQAGGSLRLSCAASGFTFGRYPLGWYRQAPGKERELVAAITRGSGGTYYADSVKGRFTISRDNAKNTVYLQMNSLKPEDTAVYYCNTASYRGYDYWGQGTQVTVSS | high polyreactivity |

| Sequence | polyreactivity (PSR sort gate) |
| --- | --- |
| QVQLEESGGGLVQAGGSLRLSCAASGFTFRYYAMGRYRQAPGKVRELVAVISRTGGSTNFADSVKGRFTISRDNAKKTVYLQMNSLKPEDTAVYYCNAVARYQTKYRYEYWGQGTQETVSS | high polyreactivity |
| QVQLEESGGGLVQAGGSLRLSCAASGFTFSPNAMGWYRQAPGKVRELVAAIDWIGGSTYYADSVKWRFTISRDNAKNTVYLQMKSLNTEDTAVYLCTADWVYWHYLTYLVTFDYWGQGTQVTVSS | low polyreactivity |
| QVQLEESGGGLVQAGGSLRLSCAASGFTFSRNAMGWYRKAPGKERQLVARISSRGGSTYYADSVKGRFTISRDNAKKTVYLQMNSLKPEDTAVYYCARDPVGTTAARYNYWGQGTQVTVSS | high polyreactivity |
| QVQLEESGGGLVQAGGSLRLSCAASGFTFTPNAMGWYRQAPGKERELVAAINWSGGRTYYADSVKGRFTISRDNAKNTVYLQMNSLKPEDTAVYYCNVLKGRSYYPGMDYWGQGTQVTVSS | high polyreactivity |
| QVQLEESGGGLVQAGGSLRLSCAASGFTFVDYVMGWYRQAPGKERELVAAISRRAGRTYYADSVKGRFTNSRDNAKNTVYFQMNSLKREDTAVYSCAAYLSRSYYAYDYWGQGTQVTVSS | high polyreactivity |
| QVQLEESGGGLVQAGGSLRLSCAASGFTFVPYAMGWYRQAPGKERELVARITWSGGSTYYADSVKGRFTISRDNAKNTVYLQMNSLKPEDTAVYYCNLDTRYPGYWRVFAKNNYWGQGTQVTVSS | high polyreactivity |
| QVQLEESGGGLVQAGGSLRLSCAASGFTFYLYAMGWYRQAPGKERELVASISSGGRTYYADSVKGRFTISRDNAKNTVYLQMNSLKPEDTAVYYCAVSPYSRRKYEYYYWGQGTQVTVSS | high polyreactivity |
| QVQLEESGGGLVQAGGSLRLSCAASGFTIGYNAKGWYRQATRKERELVAAIRSTGSTNYADSVKGRFTISRDYAKNTVYLQMNSLKPEDTAVYYGAAGRNAAIVYDYDYWGQGTQVTVSS | low polyreactivity |
| QVQLEESGGGLVQAGGSLRLSCAASGFTLDTYAMGWYRQAPGKERELVAAITSRGGTTYYADSVKGRFTISRDNAKNTVYLQMNSLKPEDTAVYYCNAVTKRWWYRTGYGYWGQGTQVTVSS | high polyreactivity |
| QVQLEESGGGLVQAGGSLRLSCAASGFTLRGYAMGWYRQAPGKERELVAAINGGGSTYYADSVKGRFTISRDNAKNTVYLQMNSLKPEDTAVYYCAVRIRKTAFRVLRYNYWGQGTQVTVSS | high polyreactivity |
| QVQLEESGGGLVQAGGSLRLSCAASGGTFDEYAMGWSRQAPGKERELVATISWNSGSTYYADSVKGRFTISRDNAKNTVYLQMNSLKPEDTAVYYCATGRNVGVWSDDYWGQGTQVTVSS | high polyreactivity |
| QVQLEESGGGLVQAGGSLRLSCAASGGTFGWYAMGWYRPAPGTERELVAAITSSGGTTFYADSVKGRFTISRDTAKNTVYLQMNSLKPEDTAVYYCAKRGKRPTRYKLGKYDYWGQGTQVTVSS | high polyreactivity |
| QVQLEESGGGLVQAGGSLRLSCAASGIFSRYAMGWDRQAPGKERELVAAISSRGSTYYADSVKGRFTISRDNAKYTVYLQLNSMKPEDTGVYYCAATVGRGKLDYWGQGTQVNVSS | high polyreactivity |
| QVQLEESGGGLVQAGGSLRLSCAASGIIFHEYALGWYRQAPGKERELDASISWNDGSTYADSVKGRFTISRDNAKNTVYLQMNSQKPEDTAVYYCAADYPYYPFSSIYDYWGQGTQVTVSS | low polyreactivity |
| QVQLEESGGGLVQAGGSLRLSCAASGIIFRCYCMGWYRQAPGKDRELVATITSGGRTNYADSVKGRFTISRDKAKNTVYLQMNSLNTEDTAVYYCAAARLFAMDYWGQGTQVTVSS | low polyreactivity |
| QVQLEESGGGLVQAGGSLRLSCAASGIIFRLYAMGRYRQAPGKERELVAAISSGGSTNYADSVKGRFTISRDNAKNTVYLQMNSLKPEDTAVYYCAAGKAHNYDYWGQGTQVTVSS | low polyreactivity |
| QVQLEESGGGLVQAGGSLRLSCAASGIISTYYVMGWYRQAPGKERELVAAITGGDSSTYYADSVKGRFTISRDTAKNTVYLQMNSLIPDDTAVYYCAKEYYYARGARYDYWGQGTQVTVSS | low polyreactivity |
| QVQLEESGGGLVQAGGSLRLSCAASGITFDDYTMGWYRQAPGKERELVAAITRSGGSTYYADSVKGRFTISRDTAKITVSLQMNSLKPEDTAVYYCSRVKGRGFKNGYWGQGTKVTVSS | high polyreactivity |
| QVQLEESGGGLVQAGGSLRLSCAASGITFLNYAMGWYRQATGKERELVAAISWSGGRTYYADSVKGRFTISRDNAKNTVYLQMNSLKPEDTAVYYCAVRGSWYSEHNYWGQGTQVTVSS | high polyreactivity |
| QVQLEESGGGLVQAGGSLRLSCAASGITFNSYAMGSYRQAPGKERELVAAISGSGSSTYYADSVKGRFTISRDNAKNTVYLQMTSLKPEDTAVYYCAATGYSSWTFYTHEYWGQGTQVTVSS | low polyreactivity |
